The target in test [1] is Bacillus thuringiensis subsp. israelensis Cry11Aa toxin (Bacillus thuringiensis subsp. israelensis) (UniProt P21256). The test is described as follows: ELISA. (An ELISA detects its analyte on a solid surface through an enzyme-linked reagent.)
For test [2], the target named is Bacillus thuringiensis subsp. israelensis Cry4Ba toxin (Bacillus thuringiensis subsp. israelensis). The test is described as follows: ELISA.
The target of test [3] is Bacillus thuringiensis subsp. israelensis Cry11Aa toxin (Bacillus thuringiensis subsp. israelensis) (UniProt P21256). The test is described as follows: SPR. On the technique in general: Surface plasmon resonance follows binding to a sensor surface in real time, without labels.
Test [4] concerns the target Bacillus thuringiensis subsp. israelensis Cry4Ba toxin (Bacillus thuringiensis subsp. israelensis). The test is described as follows: SPR.

Data on 1 substance can be found in PMC3686486.

Chain of Bacillus thuringiensis subsp. israelensis Cry4Ba toxin (Bacillus thuringiensis subsp. israelensis) (P05519 whole entry): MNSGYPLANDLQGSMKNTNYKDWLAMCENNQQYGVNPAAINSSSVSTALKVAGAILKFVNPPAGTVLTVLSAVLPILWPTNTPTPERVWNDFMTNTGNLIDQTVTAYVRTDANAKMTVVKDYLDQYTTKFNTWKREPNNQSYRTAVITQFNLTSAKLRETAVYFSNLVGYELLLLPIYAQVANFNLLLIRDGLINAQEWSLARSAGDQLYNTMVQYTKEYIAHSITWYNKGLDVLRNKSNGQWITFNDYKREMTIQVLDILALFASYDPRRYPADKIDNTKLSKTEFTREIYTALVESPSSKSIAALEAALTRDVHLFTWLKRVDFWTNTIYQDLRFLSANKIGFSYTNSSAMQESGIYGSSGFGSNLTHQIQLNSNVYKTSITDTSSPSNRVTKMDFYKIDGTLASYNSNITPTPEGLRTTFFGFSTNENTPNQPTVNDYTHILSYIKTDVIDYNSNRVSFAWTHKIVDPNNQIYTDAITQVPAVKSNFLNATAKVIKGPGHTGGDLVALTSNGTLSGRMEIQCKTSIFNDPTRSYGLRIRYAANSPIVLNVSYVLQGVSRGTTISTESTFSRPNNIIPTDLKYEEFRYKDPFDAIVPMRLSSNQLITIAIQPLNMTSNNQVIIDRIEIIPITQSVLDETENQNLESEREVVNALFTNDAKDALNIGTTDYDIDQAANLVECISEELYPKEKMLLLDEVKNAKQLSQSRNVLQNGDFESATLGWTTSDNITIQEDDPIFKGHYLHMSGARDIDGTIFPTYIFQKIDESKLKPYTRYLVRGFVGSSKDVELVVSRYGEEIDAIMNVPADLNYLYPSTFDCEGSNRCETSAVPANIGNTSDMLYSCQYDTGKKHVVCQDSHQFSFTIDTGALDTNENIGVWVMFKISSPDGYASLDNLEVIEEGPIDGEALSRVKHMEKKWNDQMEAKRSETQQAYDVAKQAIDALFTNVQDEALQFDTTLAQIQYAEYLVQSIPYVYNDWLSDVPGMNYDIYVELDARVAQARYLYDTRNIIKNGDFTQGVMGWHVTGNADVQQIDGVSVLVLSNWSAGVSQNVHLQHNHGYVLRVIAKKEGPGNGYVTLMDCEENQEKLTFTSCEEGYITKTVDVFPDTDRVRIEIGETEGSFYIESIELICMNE

A word on the Kd: it is the free concentration of one partner at which half of the binding sites on the other are occupied at equilibrium, for simple one-to-one binding. For orientation: koff means a measure of how fast the partners let go of each other. Regarding “Aedes aegypti cadherin receptor fragment CR7–11 (cadherin repeats 7–11) (domain or fragment)”, the dissociation constant (Kd) in test [1] was determined as 14.8 nM; in test [2] it was 135 nM; in test [4], 154 nM. In addition, the off-rate (koff) in test [3] stood at 0.00252 s⁻¹; in test [4], 0.00203 s⁻¹.
